{"source": "patent US20230416410A1", "key": {"[1]": {"molecular_target": "Fc gamma receptors on bovine alveolar macrophages", "experiment": "cell-based or functional assay"}, "[2]": {"molecular_target": "recombinant bovine FcRn (bovine) (UniProt F6R592)", "sequence (chain, as listed by the source, chain 1 of 2)": "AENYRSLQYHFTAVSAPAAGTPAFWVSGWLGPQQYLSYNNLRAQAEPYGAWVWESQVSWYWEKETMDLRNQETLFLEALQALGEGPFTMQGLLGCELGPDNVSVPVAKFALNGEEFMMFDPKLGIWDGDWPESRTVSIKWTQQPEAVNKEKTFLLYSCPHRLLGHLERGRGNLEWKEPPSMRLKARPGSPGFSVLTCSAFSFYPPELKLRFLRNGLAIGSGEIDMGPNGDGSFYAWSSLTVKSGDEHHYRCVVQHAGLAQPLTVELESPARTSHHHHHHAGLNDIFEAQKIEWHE", "sequence (P01888 21-118, chain 2 of 2)": "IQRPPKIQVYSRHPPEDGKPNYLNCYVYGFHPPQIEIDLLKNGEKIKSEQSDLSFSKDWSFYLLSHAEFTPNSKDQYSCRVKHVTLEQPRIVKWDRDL", "experiment": "SPR Biacore, bFcRn on SA sensor, pH 6, 25 C"}, "[3]": {"molecular_target": "recombinant bovine FcRn (bovine) (UniProt F6R592)", "experiment": "SPR Biacore, bFcRn on SA sensor, pH 6, 25 C", "remark": "listed apart in the source"}, "[4]": {"molecular_target": "recombinant bovine FcRn (bovine) (UniProt F6R592)", "experiment": "SPR Biacore, bFcRn on SA sensor, pH 7.4, 25 C"}, "[5]": {"molecular_target": "recombinant bovine Fcg2R (bovine)", "sequence (main, as listed by the source)": "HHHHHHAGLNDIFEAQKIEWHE", "experiment": "SPR Biacore, bFcg2R amine-coupled on CM5, pH 7.4, 15 C"}, "[6]": {"molecular_target": "recombinant bovine FcRn (bovine) (UniProt F6R592)", "experiment": "SPR Biacore, bFcRn, pH 6; against bIgG1a and bIgG3a mAbs"}, "[7]": {"molecular_target": "recombinant bovine FcRn (bovine) (UniProt F6R592)", "experiment": "SPR Biacore, bFcRn on SA sensor, pH 7.4, 25 C", "remark": "listed apart in the source"}}}
{"substance": "CTLA4bG2a (from UniProt Q9XSI1 36-161) (Fc fusion)", "values": [{"measurement": "ADCP EC50 Value", "setting": "[1]", "result": 0.014, "unit": "µg/mL"}]}
{"substance": "CTLA4 Fc bIgG3a (from UniProt Q9XSI1 36-161) (Fc fusion)", "values": [{"measurement": "ADCP EC50 Value", "setting": "[1]", "result": 0.029, "unit": "µg/mL"}]}
{"substance": "bIgG2a wildtype mAb (antibody)", "values": [{"measurement": "Kd", "setting": "[2]", "result": 0.254, "unit": "nM"}, {"measurement": "Kd", "setting": "[3]", "result": 3.06, "unit": "nM"}, {"measurement": "Kd", "setting": "[4]", "result": 147, "unit": "nM"}, {"measurement": "Kd", "setting": "[5]", "result": 13.3, "unit": "nM"}, {"measurement": "fold higher affinity than bIgG1a and bIgG3a", "setting": "[6]", "result": 10, "unit": "fold"}, {"measurement": "Kd", "setting": "[7]", "result": 131, "unit": "nM"}]}
{"substance": "CTLA4 Fc bIgG1a (from UniProt Q9XSI1 36-161) (Fc fusion)", "values": [{"measurement": "ADCP EC50 Value", "setting": "[1]", "result": 0.003, "unit": "µg/mL"}]}
